Assay: soluble on expression in E. coli; label from the status in PepcDB or PDB records

Row | Sequence | soluble on expression in E. coli
1 | MGSDKIHHHHHHVKRRLNPLEAYLVVMSNADRAGGLVLAATPKMKQEHHIKTGSRMYELPTWDKRIIIAPPRMKLYLKVNAMIQAIFRRYVPAEFIHVYSIDECFLDITGSHLLFGSTEEIVRKIQRDILEELRLYVTVGIGDNPLLAKLALDNVAKNRDDGIAEWRYEDVPETIWKIRHLDDVCGIGRRTAIRLQKMGIFNMYQLSQTPPQVLKNAMGVVGEQLYYHAHGIDYSLLNEKYVPVSKSYGKSQILEKDYHIPAEVEIVIREMVEEVAMRLRQNHVDTEVIHLSIGYSKYSIKKGFSHQAKIPSTSSSHALIPYFLQLFRRYDEREPVRSIAISCGKLTLKTGLQLNLFEDATRTLNHEQLEVTVDKIRTRYGFKSLMHASSLLNGATGLKRSEMVGGHKG | not soluble
2 | MQEDDSVKPFQTVGAHRDLIHCVSFDPHGRRMATCASDMTMAIWDRKPDGNWRRSAHWKCHGGAVWRVIWAHPEFGQIVATCSYDRTIVIWEEQIVRSEKDLKQKESQWIRRTIISDNRSDVTDICFSPRHLGLMMASCNVLGTVRIYEAPDIVDASRWNLIHELQAFHTRCGCVTWSLSRMHRPLIAVGSDEKKAENKKRVVIYENIDGLRKWQRINSLVFDLPCPITDLKFSPISMVDSHQLAVASGDVHVYNIKVARSAILEEDGVENPIQLADYNLIKVALLGDHRKAWRLRYNLMGSVISSTSLDGTLRSWKSLFVNQWVKLSEMNVDDYVPSPEEVRAFISSKTTERLPSQLEKTYF | not soluble
3 | MGSSHHHHHHGKTIFVIVPTNEEQVAFLEALAKQDELNFDWQNPPTEPGQPVVILIPSDMVEWFLEMLKAKGIPFTVYVEEGGSENLYFQGGGGGGPFRYQISEYFERQRDGVHVELRRKAVKYYAEMERMHRRQALVNLESIQDDNAPHRLSAVLSVESIQAGHLDQEYNYWYAHERDAIRAEKLMMEIRELKAKMPADSA | not soluble
4 | MAHHHHHHMQPFQFVPQVDNKVNVVSMQPFQMYVPNHNMMVPQACPENIQQYHHQPIFFEPLPPIYVKNQLLPSPILVQMPTTVVVQNESQPAMVLSQPPSNIVVKNNPPTSVFVKQSNPNVVVKNEAPPNYVQSVEACQEGVVADMSRPMMTTLNKNIL | not soluble
5 | MAHHHHHHMEKVITMREIITNTRKIKLHENFLEDCNLKDIFYNGLETVNCGYNDYVNMKTWLFVLSEKMFRTDYEELAYVACDALKVLLCNSKFLNVIIFKLLRKKLEKEILKIMGICCLTVASRMQQINESTCFKVILELSNLKDKLNEFNIRQIEMDVFVTLAHSGFCFEKIITPVNELNQIMKFLETYENFFDNNFNTFKSSSNLMLKIIYCMVPVFNMNIYNYSIVNYALRLFIQDNDKYEFIFEKLKQNYQDKEIIHISNFQNHMHNIINAFKNTSIFSAKDSILNNQLDVQLFEEINKKIEAYYEQKHKT | not soluble
6 | MAGGEDRGDGEPVSVVTVRVQYLEDTDPFASANFPEPRRAPTCSLDGALPLGAQIPAVHRLLGAPLKLEDSALQVSPSGYYLDTELSLEEQREMLEGFYEEISKGRKPTLILRTQLSVRVNAILEKLYSSSGPELRRSLFSLKQIFQEDKDLVPEFVHSEGLSCLIRVGAAADHNYQSYILRALGQLMLFVDGMLGVVAHSDTIQWLYTLCASLSRLVVKTALKLLLVFVEYSENNAPLFIRAVNSVASTTGAPPWANLVSILEEKNGADPELLVYTVTLINKTLAALPDQDSFYDVTDALEQQGMEALVQRHLGTAGTDVDLRTQLVLYENALKLEDG | soluble
7 | MGSDKIHHHHHHMRKLKREAYKLNNIKMLQQDVKYSEEVIEAEFSVEGYSLIDYKRSYTLSRALVNGKWIVYDGNRLESSQKIKEFEICEDFYHESVKAWPNKEKYSRLFTNIKLNEDDQLKVISKKISKSILIHDVKECREEKVVNYVEYNDLNFSYAGNPKDIPSIVEYLRASQSQLTSPSRQVLTESGRLTFILDSEIVASIFHYVLRNFLNGNSPKLKLNEKISSEITIYDNPLNSFSSSFSVFDDEGVKTKKKEIIGDGIITNYLGTLTSKYGEAGNARGILPKPDYFSLEVKQGDWSLNELIDESRGAYIAMGVKKSELIRNSIRITPRSVVKIGQGQIFFREIAIPLQELVTIDAVTRENRGVFIDEEHGGVTPYVRMKVRAILY | not soluble
8 | GAKPERGRFLHFHSVTFWVGNAKQAASFYCSKMGFEPLAYRGLETGSREVVSHVIKQGKIVFVLSSALNPWNKEMGDHLVKHGDGVKDIAFEVEDCDYIVQKARERGAKIMREPWVEQDKFGKVKFAVLQTYGDTTHTLVEKMNYIGQFLPGYEAPAFMDPLLPKLPKCSLEMIDHIVGNQPDQEMVSASEWYLKNLQFHRFWSVDDTQVHTEYSSLRSIVVANYEESIKMPINEPAPGKKKSQIQEYVDYNGGAGVQHIALKTEDIITAIRHLRERGLEFLSVPSTYYKQLREKLKTAKIKVKENIDALEELKILVDYDEKGYLLQIFTKPVQDRPTLFLEVIQRHNHQGFGAGNFNSLFKAFEEEQNLRGNLTNMETNGVVPGMAENLYFQ | soluble
9 | MGSDKIHHHHHHMALSADSRLQFTSDLNICRILNGMWQVSGGHGKINAPAAIKTMFQYVDAGFTTWDLADHYGPAEDFIGEFRRQLVANRGKEALANIQAFTKWVPRPGRMTKKLVEENIDISRRRMDVESLDLMQFHWWDYQDKNYLDALKYMAELQTEGKIKHLALTNFDTEHLQIITEAGIKIVSNQVQFSLVDRRPEVNMVKFCQQHDIKLFTYGTLCGGLLSEKYIGKPEPRGFDLGTTSLRKYKNMVDAWGGWHLFQELLSTLKQIADKHGVSIANVATRYILDKPAVGGVIVGARLGISEHIADNAKVFSFTLDAEDSNVINTISSQSRDLYQLIGDCGDEYRR | not soluble
10 | MQDFLWKSCAIMGTMKLRIEQDDQYKELEIHITYGQKDKLIERILGFLETVDRQLSCYQEGRKYLVNFSDIYYIESVDKKTFVYLADEIYQTDLRLYQLLHDLQHDGFVQISKSCLLNINVLENIRPLFNSRMEATLLNGERVIVNRRYLPDVKEALKGIQ | not soluble
11 | MSLNKLLSQLASVEILTPKIDDTLWFFKDILGLHEVGRKDRSVYLRGWEDWYAYSLKVTESDTAGVKEIVWRTYSEKDLIDSINIVNSNGLGLGWDEGEPDMGVGKGYKFILPSGQIGKLVWEMKIWRASGELRSGYKARPMKKPTKGVQAKDLSHIFIFAYNDESLAKTVELLKRLTFKVNEILKEGDKRIAYWMAVNGTAHDLAVSLDPSGVPARLNHVTFNVDYADDILKAADFYTDYGLEIVGGPLRHGITDSHSLYVKEPGGNVIELLHGGYLNVVPDWEPIVWDTKEDENRWLYYWGHVKEAFWHGEGHHHHHH | not soluble
12 | MPSYKLTYFAVRGLAEPARLLFHLAGVPFEDERLTFGDGSWEKLKDKTPMGQMPVLNVDGFEIPQSAAITRYLARKFGFAGKTPEEEAWVDAVVDQFKDFFGEFRKLIIAQRAGKSVEEIEKLTKEVINPAVSSFFKILNGLLEKSKSGYLIGDSITFADLFIAEDMQSLKNFGFLNATEQPKIAAHLEKVYSHPKLKSYIASRPVTEI | not soluble
13 | GPGSMDTLTHLSHTLREAMSDIVPESHPEHPFNLIPELCRKFYDLGWATGTGGGISIKMGENYYIAPSGVQKERIKPNEIFVLNASQDVVEEPRTEKQLKISECTPLFFNAYRMRGAGACLHTHSANCVLISLLCDREFRISHIEMIKGIINNETKKALGFRDTLVIPIIENTDFERDLTASMAECMERYPESCAVLVRRHGMYVWSDTWQKAKGAVECIDYLMGLAIRMRTLGLEWEPKDVK | soluble
14 | MSLEDCRISRVELYALADENAPPIPWADNQEPLLYTNNIVRLFTEDGTEGLGATMSYTENFFDRCIIESLRTIVPGLIGKNPLMTQELNNWLGARCTWGGLPAKSPIDIAAWDIKGKKAGMPLYMLLGGARTKIKSYASTPMFDTVEEYFPYIDDCIEHGFTAIKLHCYCVYDKDVALVEAVEAKYGTSGIRFMLDTAGFYTPEQAMKMAKWMERHNWEWLEAPVSDYDFKTYQRLVANTDLEISSHGNCLLTLQEVTHALSTGMWSDVRQDATVCGGITQLNKCFAIAAGHSKNLEIQSMGYTLTQAANLHVALAHDNCNFFEQFYPYEAFELASKTQIRTDKEGYVHAPAGNGLGVEMDWDAVKEASFASYVFEEGHHHHHH | soluble
15 | MGSDKIHHHHHHMELVKFGKLKEQSYTMKESLRALKTNIQFCGDDIRTLLVTSSVPNEGKSTVALDLARSLTESGNRVLFIDTDMRKSVLAGRLRATAASGGEICGLSHYLSGQRRLEEVMYGTEIPGLFMIFAGPSVPNPTEILEKKYFQELLNFGKEHFNYIIIDCAPIGAAIDAAVVAKYCDGAIIVIGQGMASARMIQSVKKQLEASGVRILGAVLNKVNNKKNSHVSGYYGNYYGSYYGRSDKA | not soluble
16 | MPSPSGGWGCGGTWARGVDGARLFSIHHQAVRPNLSTISPPKEPPMIEVRHLCKSFARKPAVQDISFSIPAGEIVGYLGPNGAGKSTTIKVLTGLLVPDSGEVRVGGLVPWKQRRQHVARLGAVFGQRTTLWWDLPVRESLELLRHVYRVPAARFAENLAGFTELLELGPFLNTPARALSLGQRMRADLAAALLHDPELLFLDEPTVGLDVVAKERIREFVKAVNAERGVTVLLTTHDLGDVERLARRVMMIDTGRLLFDGPLAELQARYGGERELWVEFEKAPAQPALPGLTLLGQDGPRVRYGFSGAAAAPIAQVTALAPVRDLAVKEPEVEATIRRIYEGNLLGSRSVREGLEHHHHHH | not soluble
17 | MRGSHHHHHHGMASMTGGQQMGRDLYDDDDKDHPFMAQRTEESKGKLSFATQGGQGEGSYSKSNSAASKTLSACIVPSLEEFLLHHFSPPQGAGPIYYADFGCAVGANTIGLAKFVTETLKSRPEISERDFLCYFADLPTNDFNTLFNQFPPLASRDGGNGNVEERTWFAAGVPGNQFNRMFPRSSLHVAITTLTLHYLPEIPKSITDESSPTFNRGCISSHGASPAVAEVFADTSREGLRKFFQCRAEELASGGVLAFYFPSRPDRAHPERQMSEDSMQLALWKVETAWRELVAEGVMPEELLDTFNVPNCHPSKEEVEEVVDHETSCFHIQKLEYIHKHPFSPPNPELILKDAQSYAKWWTGILRGGLGGMLSAHMAPELTEALMERFSKHIEKDYLEKKPQFPMIMNICMGILIRK | soluble
18 | QVQLQESGGGLVQAGGSLRLSCAASGSIFSINSMDWDRQAPGKQRELVATITSGGSTNYADSVKGRFTISRDNAKNTVYLQMNSLKPEDTAVYYCNANVKTWAGMTRDYWGQGTQVTVSSHHHHHH | soluble
19 | NSDSMILVTVNPKTKKTTMTSLERDTLTTLSGPKNNEMNGVEAKLNAAYAAGGAQMAIMTVQDLLNITIDNYVQINMQGLIDLVNAVGGITVTNEFDFPISIAENEPEYQATVAPGTHKINGEQALVYARMRYDDPEGDYGRQKRQREVIQKVLKKILA | not soluble
20 | MIYSVGNRLGNKLTGIEKAMINRHNLFKNHSITSKLIFASWSPRLHFNASLFQIEDDDILSLYDVLQDSINIKSIHKDWITHWTKECNYTLKFIENTNDIKIYEKSNYRMYVHFNDSNYQHLDYINHFDVNQRKIRRDLYDSRGFLSCSRTLTTNQKVVCEHYYTPEGTIKFQKFFNPELENSQSQLIIYNTDSQLKYFNNDQELLAFAIEKLYKNGDIFLSDKNINTAPIFNNTSETIPVLAVLHSTHVKNIDMVYESDIKNTYKHVFNNLNRYSGIIVSTKQQQLDISARINNEIPVHTIPVGYIDEHFTNLKRNNHSINNNKIISVARYSPEKQLNHQIELVSKLIKEFPNIQLHLYGFGKEEEKYKQLITEYNLENNVFLRGFRRNLSAEIQDAYMSLITSNMEGFNLGLLETITEGIPPVGYNSKYGPSELILNNENGYLINKNDKDELYNRVRNLLLDKTLRDTFSQECIKHSKAFSSKIVMKLWEDRFSTINSSYE | not soluble

— the DeepSol protein solubility set
